Experimental data as given in patent US11130803B2, “Isoform-selective TGFβ1 inhibitors and use thereof” (Scholar Rock, Inc., priority 2018, dated 2021).
Where a chain is given by its changes, count along the chain named.

B1: Ab21: monoclonal antibody; VH SEQ ID NO: 129, VL SEQ ID NO: 15 (antibody, V domains shown)
VH: EVQLVESGGGLVQPGGSLRLSCAASGFTFSSFSMDWVRQAPGKGLEWVSYISPDASTIYYADSVKGRFTISRDNAKNSLYLQMNSLRAEDTAVYYCARGVLDYGDMLDPWGQGTLVTVSS
VL: DIQMTQSPSSLSASVGDRVTITCQASQDITNYLNWYQQKPGKAPKLLIYDASNLETGVPSRFSGSGSGTDFTFTISSLQPEDIATYYCQQADNHPPWTFGGGTKVEIK
B2: Ab23: monoclonal antibody; VH SEQ ID NO: 131, VL SEQ ID NO: 15 (antibody, V domains shown)
VH: B1 VH with D35N, D54S, S56D, S78T
VL: B1 VL
B3: Ab25: monoclonal antibody; VH SEQ ID NO: 133, VL SEQ ID NO: 15 (antibody, V domains shown)
VH: B1 VH with S30G
VL: B1 VL
B4: Ab27: monoclonal antibody; VH SEQ ID NO: 135, VL SEQ ID NO: 15 (antibody, V domains shown)
VH: B1 VH with S31F, F32Y, S33A, D35N
VL: B1 VL
B5: Ab28: monoclonal antibody; VH SEQ ID NO: 136, VL SEQ ID NO: 15 (antibody, V domains shown)
VH: B1 VH with A97V
VL: B1 VL
B6: Ab13: monoclonal antibody; VH SEQ ID NO: 242, VL SEQ ID NO: 243 (antibody, V domains shown)
VH: EVQLLESGGGLVQPGGSLRLSCAASGFTFADYAMTWVRQAPGKGLEWVSAISSFASAIYYADSVKGRFTISRDNSKNTLYLQMNSLRAEDTAVYYCARVSSGHWDFDYWGQGTLVTVSS
VL: DIQMTQSPSSLSASVGDRVTITCRASQSISSYLNWYQQKPGKAPKLLIYAASSLQSGVPSRFSGSGSGTDFTLTISSLQPEDFATYYCQQVYDPPLTFGGGTKVEIK
B7: Ab14: monoclonal antibody; VH SEQ ID NO: 244, VL SEQ ID NO: 243 (antibody, V domains shown)
VH: B6 VH with A30S, D31A, S53G, F54T, A55G, S56G, A57S, I58T
VL: B6 VL
B8: Ab15: monoclonal antibody; VH SEQ ID NO: 245, VL SEQ ID NO: 241 (antibody, V domains shown)
VH: EVQLVESGGGVVQPGRSLRLSCAASGFTFSDYAMVWVRQAPGKGLEWVSAISGSGFTTYYADSVKGRFTISRDNSKNTLYLQMNSLRAEDTAVYYCARVSSGHWDFDYWGQGTLVTVSS
VL: B6 VL with M4L, S53N, V91T, D93T, P94V
B9: Ab16: monoclonal antibody; VH SEQ ID NO: 247, VL SEQ ID NO: 241 (antibody, V domains shown)
VH: B8 VH with V5L, V11L, R16G, D31N, V35S
VL: B6 VL with M4L, S53N, V91T, D93T, P94V
B10: Ab17: monoclonal antibody; VH SEQ ID NO: 248, VL SEQ ID NO: 241 (antibody, V domains shown)
VH: B8 VH with V5L, R16G, D31S, Y32F, V35T, F56A, T57A, Y60F
VL: B6 VL with M4L, S53N, V91T, D93T, P94V

Tested on: matrix-associated (LTBP1/LTBP3) and cell-associated (GARP/LRRC33) proTGFβ1 complexes
Assay: Octet: average KD and fold bias, matrix- vs cell-associated complexes
Format: binding, human
Settings: average KD of (E) and (F), cell-associated complexes, read-out: (G) Cell AVRG
Description: Column (A) of the table lists monoclonal antibodies with discrete amino acid sequences. […] Columns (B), (D), (E) and (F) provide affinities of each of the listed antibodies, measured in KD. […] Average KD values of (B) and (C) are shown in the corresponding column (D), which collectively represents affinities of the antibodies to ECM- or matrix-associated proTGFβ1 complexes. Similarly, Average KD values of (E) and (F) are shown in the corresponding column (G), which collectively represents affinities of the antibodies to cell-surface or cell-associated proTGFβ1 complexes. Finally, relative ratios between the average KD values from columns (D) and (G) are expressed as “fold bias” in column (H). […] This is one way of quantitatively representing and comparing inherent bias of antibodies to their target complexes.
Average KD values between the two matrix-associated and cell-associated complexes are calculated, respectively (see columns (D) and (G)). These average KD values can then be used to ask whether bias in binding activities exists between complexes associated with matrix vs. complexes associated with cell surface (e.g., immune cells). Bias may be expressed as “fold-difference” in the average KD values, as illustrated in Table 8.

Point of comparison: B9, Kd 2.4 nM. Against it:
- B1 — 3.7-fold lower, 0.644 nM
- B2 — 2.7-fold lower, 0.897 nM
- B3 — 5.3-fold lower, 0.449 nM
- B4 — 6.6-fold lower, 0.361 nM
- B5 — 4-fold lower, 0.603 nM
- B6 — 2.4-fold higher, 5.7 nM
- B7 — 2.5-fold higher, 5.92 nM
- B8 — 1.6-fold higher, 3.86 nM
- B10 — 1.9-fold higher, 4.64 nM

Same assay, conditions: ratio of average KD cell-associated / matrix-associated

Point of comparison: B9, “(H) G/D (fold bias)” value 15.307 fold. Against it:
- B1 — lower, 2.613 fold
- B2 — lower, 2.028 fold
- B3 — lower, 2.431 fold
- B4 — lower, 1.738 fold
- B5 — lower, 1.838 fold
- B6 — higher, 21.71 fold
- B7 — higher, 17.36 fold
- B8 — higher, 24.25 fold
- B10 — higher, 24.288 fold

Tested on: matrix-associated (LTBP1/LTBP3) and cell-associated (GARP/LRRC33) proTGFβ1 complexes
Assay: as above
Format: binding, human
Settings: average KD of (B) and (C), read-out: (D) ECM AVRG

Point of comparison: B9, Kd 0.157 nM. Against it:
- B1 — 1.6-fold higher, 0.246 nM
- B2 — 2.8-fold higher, 0.443 nM
- B3 — within 1.5-fold, 0.184 nM
- B4 — within 1.5-fold, 0.208 nM
- B5 — 2.1-fold higher, 0.328 nM
- B6 — 1.7-fold higher, 0.263 nM
- B7 — 2.2-fold higher, 0.341 nM
- B8 — within 1.5-fold, 0.159 nM
- B10 — within 1.5-fold, 0.191 nM

Target: T1, recombinant human LTBP1-proTGFβ1 complex (Homo sapiens, UniProt P01137)
T1 construct: made in house; host or cells: Expi293F cells, transient co-transfection
T1 sequence (P01137 30-390): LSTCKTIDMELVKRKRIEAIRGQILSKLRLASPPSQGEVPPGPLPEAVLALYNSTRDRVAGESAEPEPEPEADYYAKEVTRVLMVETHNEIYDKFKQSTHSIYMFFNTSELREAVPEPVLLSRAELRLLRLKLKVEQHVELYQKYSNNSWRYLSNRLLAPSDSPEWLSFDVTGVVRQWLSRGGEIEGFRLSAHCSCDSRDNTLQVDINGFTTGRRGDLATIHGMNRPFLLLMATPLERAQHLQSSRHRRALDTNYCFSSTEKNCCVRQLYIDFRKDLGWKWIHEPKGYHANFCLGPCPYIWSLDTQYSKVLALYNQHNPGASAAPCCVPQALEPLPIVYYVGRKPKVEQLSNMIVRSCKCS
T1 sequence (Q14766 873-1507 partner): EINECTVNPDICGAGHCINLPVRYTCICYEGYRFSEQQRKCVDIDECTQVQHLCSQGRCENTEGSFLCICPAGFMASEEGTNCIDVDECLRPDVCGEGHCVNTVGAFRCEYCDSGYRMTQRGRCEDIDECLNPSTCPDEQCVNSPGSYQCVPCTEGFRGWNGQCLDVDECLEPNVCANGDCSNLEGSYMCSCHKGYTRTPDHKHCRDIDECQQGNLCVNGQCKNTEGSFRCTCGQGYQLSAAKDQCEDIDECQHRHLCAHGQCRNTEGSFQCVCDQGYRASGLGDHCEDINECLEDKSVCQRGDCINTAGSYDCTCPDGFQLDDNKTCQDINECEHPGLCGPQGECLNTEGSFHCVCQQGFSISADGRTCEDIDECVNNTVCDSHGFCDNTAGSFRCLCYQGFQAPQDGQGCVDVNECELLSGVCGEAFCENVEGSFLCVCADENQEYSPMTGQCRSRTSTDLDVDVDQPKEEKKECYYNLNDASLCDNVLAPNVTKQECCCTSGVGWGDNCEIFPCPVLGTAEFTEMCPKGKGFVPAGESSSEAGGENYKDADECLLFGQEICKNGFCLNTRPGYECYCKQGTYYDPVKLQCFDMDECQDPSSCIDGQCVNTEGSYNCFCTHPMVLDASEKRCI
Assay: Octet (Biolayer Interferometry) in vitro kinetic binding
Settings: in M
Description: (§1) Biolayer Interferometry (BLI):BLI is a label-free technology for optically measuring biomolecular interactions, e.g., between a ligand immobilized on the biosensor tip surface and an analyte in solution. BLI provides the ability to monitor binding specificity, rates of association and dissociation, or concentration, with precision and accuracy. BLI platform instruments are commercially available, for example, from ForteBio and are commonly referred to as the Octet® System.
(§2) BLI-based binding assays are widely used in the art for measuring affinities and kinetics of antibodies to antigens. It is a label-free technology in which biomolecular interactions are analyzed on the basis of optical interference. One of the proteins, for example, an antibody being tested, can be immobilized on the biosensor tip. When the other protein in solution, for example, an antigen, becomes bound to the immobilized antibody, it causes a shift in the interference pattern, which can be measured in real-time. This allows the monitoring of binding specificity, rates of association and dissociation, as well as concentration dependency. […] Due to its ease of use and fast results, BLI-based assays such as the Octet® system (available from ForteBio/Molecular Devices, Fremont Calif.), are particularly convenient when used as an initial screening method to identify and separate a pool of “binders” from a pool of “non-binders” or “weak binders” in the screening process.
(§3) Table 8 below provides non-limiting examples of high-affinity, context-independent proTGFβ1 antibodies encompassed by the present invention. The table provides representative results from in vitro binding assays, as measured by Octet®.
(§4) Column (A) of the table lists monoclonal antibodies with discrete amino acid sequences. […] Columns (B), (D), (E) and (F) provide affinities of each of the listed antibodies, measured in KD. […] Average KD values of (B) and (C) are shown in the corresponding column (D), which collectively represents affinities of the antibodies to ECM- or matrix-associated proTGFβ1 complexes. Similarly, Average KD values of (E) and (F) are shown in the corresponding column (G), which collectively represents affinities of the antibodies to cell-surface or cell-associated proTGFβ1 complexes. Finally, relative ratios between the average KD values from columns (D) and (G) are expressed as “fold bias” in column (H). Thus, the greater the number of column (H) is, the greater bias exists for the particular antibody, when comparing binding preferences of the antibody for matrix-associated complexes and cell-surface complexes. This is one way of quantitatively representing and comparing inherent bias of antibodies to their target complexes. Such analyses may be useful in guiding the selection process for a candidate antibody for particular therapeutic use.
(§5) In some embodiments, the binding affinity of an antibody, or antigen binding portion thereof, to an antigen (e.g., protein complex), such as presenting molecule-proTGFβ1 complexes, is determined using an Octet assay. In some embodiments, an Octet assay is an assay that determines one or more a kinetic parameters indicative of binding between an antibody and antigen. In some embodiments, an Octet® system (ForteBio, Menlo Park, Calif.) is used to determine the binding affinity of an antibody, or antigen binding portion thereof, to presenting molecule-proTGFβ1 complexes. For example, binding affinities of antibodies may be determined using the fortéBio Octet QKe dip and read label free assay system utilizing bio-layer interferometry. In some embodiments, antigens are immobilized to biosensors (e.g., streptavidin-coated biosensors) and the antibodies and complexes (e.g., biotinylated presenting molecule-proTGFβ1 complexes) are presented in solution at high concentration ([…]) to measure binding interactions. […]

Point of comparison: B8, “(B) hLTBP1, Matrix-associated proTGFb1 (KD)” value 1.50E−10. Against it:
- B1 — higher, 2.25E−10
- B2 — higher, 4.17E−10
- B3 — higher, 2.17E−10
- B4 — higher, 1.78E−10
- B5 — higher, 3.40E−10
- B6 — higher, 2.76E−10
- B7 — higher, 3.36E−10
- B9 — higher, 1.81E−10
- B10 — higher, 1.74E−10

Target: T2, recombinant human GARP-proTGFβ1 complex (Homo sapiens, UniProt P01137)
T2 construct: made in house
T2 sequence (P01137 30-390): as the sequence (P01137 30-390) above
T2 sequence (Q14392 20-627 partner limits assumed): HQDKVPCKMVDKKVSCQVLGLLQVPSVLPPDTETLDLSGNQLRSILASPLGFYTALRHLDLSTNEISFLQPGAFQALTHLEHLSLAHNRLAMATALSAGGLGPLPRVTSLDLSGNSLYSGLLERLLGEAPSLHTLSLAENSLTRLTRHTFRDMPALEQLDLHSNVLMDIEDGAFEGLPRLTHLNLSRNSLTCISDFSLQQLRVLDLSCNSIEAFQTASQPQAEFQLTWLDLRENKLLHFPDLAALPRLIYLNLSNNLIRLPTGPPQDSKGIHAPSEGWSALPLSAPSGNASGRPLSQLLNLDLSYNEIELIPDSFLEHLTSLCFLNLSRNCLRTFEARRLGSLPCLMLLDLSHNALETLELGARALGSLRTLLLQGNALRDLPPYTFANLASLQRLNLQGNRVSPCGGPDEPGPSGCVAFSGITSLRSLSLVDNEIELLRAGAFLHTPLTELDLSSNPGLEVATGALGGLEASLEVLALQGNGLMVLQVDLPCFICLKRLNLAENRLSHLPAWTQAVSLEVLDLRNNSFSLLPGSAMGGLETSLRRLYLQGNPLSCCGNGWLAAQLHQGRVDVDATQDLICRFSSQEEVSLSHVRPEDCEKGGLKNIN
Assay: as above
Settings: in M
Description: as §1, §2, §3, §4, §5

Point of comparison: B8, “(E) hGARP, Cell-associated proTGFb1 (KD)” value 7.01E−09. Against it:
- B1 — lower, 8.33E−10
- B2 — lower, 1.34E−09
- B3 — lower, 4.88E−10
- B4 — lower, 4.24E−10
- B5 — lower, 7.97E−10
- B6 — higher, 1.00E−08
- B7 — higher, 1.05E−08
- B9 — lower, 4.16E−09
- B10 — higher, 8.62E−09

Target: T3, recombinant human LTBP3-proTGFβ1 complex (Homo sapiens, UniProt P01137)
T3 construct: made in house; host or cells: Expi293F cells, transient co-transfection
T3 sequence (P01137 30-390): as the sequence (P01137 30-390) above
T3 sequence (Q9NS15 866-1039 partner limits assumed): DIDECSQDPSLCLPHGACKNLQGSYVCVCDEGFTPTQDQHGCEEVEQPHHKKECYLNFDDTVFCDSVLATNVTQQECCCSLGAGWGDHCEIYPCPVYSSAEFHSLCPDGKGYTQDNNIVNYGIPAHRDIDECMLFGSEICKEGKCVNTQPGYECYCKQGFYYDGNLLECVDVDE
Assay: as above
Settings: in M
Description: as §1, §2, §3, §4, §5

Point of comparison: B4, “(C) hLTBP3, Matrix-associated proTGFb1 (KD)” value 2.38E−10. Against it:
- B1 — higher, 2.68E−10
- B2 — higher, 4.68E−10
- B3 — lower, 1.52E−10
- B5 — higher, 3.16E−10
- B6 — higher, 2.49E−10
- B7 — higher, 3.46E−10
- B8 — lower, 1.68E−10
- B9 — lower, 1.32E−10
- B10 — lower, 2.08E−10

Target: T4, recombinant human LRRC33-proTGFβ1 complex (Homo sapiens, UniProt P01137)
T4 construct: made in house
T4 sequence (P01137 30-390): as the sequence (P01137 30-390) above
T4 sequence (Q86YC3 19-650 partner limits assumed): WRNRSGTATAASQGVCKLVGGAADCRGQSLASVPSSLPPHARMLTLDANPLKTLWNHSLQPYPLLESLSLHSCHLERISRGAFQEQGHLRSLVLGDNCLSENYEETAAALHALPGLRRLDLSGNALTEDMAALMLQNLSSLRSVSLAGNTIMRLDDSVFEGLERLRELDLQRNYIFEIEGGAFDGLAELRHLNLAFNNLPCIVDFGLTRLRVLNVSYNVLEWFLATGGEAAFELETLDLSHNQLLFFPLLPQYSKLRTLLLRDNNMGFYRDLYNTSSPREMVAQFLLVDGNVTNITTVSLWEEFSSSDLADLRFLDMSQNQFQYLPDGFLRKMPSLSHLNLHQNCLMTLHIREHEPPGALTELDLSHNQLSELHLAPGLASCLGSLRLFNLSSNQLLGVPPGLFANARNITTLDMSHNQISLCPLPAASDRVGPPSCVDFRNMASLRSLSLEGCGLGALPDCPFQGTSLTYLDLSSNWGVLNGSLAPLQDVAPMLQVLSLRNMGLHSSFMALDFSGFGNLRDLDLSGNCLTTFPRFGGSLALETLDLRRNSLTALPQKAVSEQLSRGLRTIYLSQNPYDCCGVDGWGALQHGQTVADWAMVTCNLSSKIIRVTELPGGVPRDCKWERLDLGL
Assay: as above
Settings: in M
Description: as §1, §2, §3, §4, §5

Point of comparison: B9, “(F) hLRRC33, Cell-associated proTGFb1 (KD)” value 6.31E−10. Against it:
- B1 — lower, 4.55E−10
- B2 — lower, 4.55E−10
- B3 — lower, 4.09E−10
- B4 — lower, 2.99E−10
- B5 — lower, 4.09E−10
- B6 — higher, 1.40E−09
- B7 — higher, 1.34E−09
- B8 — higher, 7.02E−10
- B10 — higher, 6.58E−10
